{"source": "patent US10711246B2", "about": "“Methods and compositions for generating epicardium cells” (UNIVERSITY HEALTH NETWORK, priority 2013, dated 2020)", "molecules": {"B1": {"name": "DKK1 (protein, UniProt O94907 32-266, looked up)", "Dickkopf-related protein 1": "TLNSVLNSNAIKNLPPPLGGAAGHPGSAVSAAPGILYPGGNKYQTIDNYQPYPCAEDEECGTDEYCASPTRGGDAGVQICLACRKRRKRCMRHAMCCPGNYCKNGICVSSDQNHFRGEIEETITESFGNDHSTLDGYSRRTTLSSKMYHTKGQEGSVCLRSSDCASGLCCARHFWSKICKPVLKEGQVCTKHRRKGSHGLEIFQRCYCGEGLSCRIQKDHHQASNSSRLHTCQRH"}, "B2": {"name": "noggin (protein, UniProt Q13253 28-232, looked up)", "Noggin": "QHYLHIRPAPSDNLPLVDLIEHPDPIFDPKEKDLNETLLRSLLGGHYDPGFMATSPPEDRPGGGGGAAGGAEDLAELDQLLRQRPSGAMPSEIKGLEFSEGLAQGKKQRLSKKLRRKLQMWLWSQTFCPVLYAWNDLGSRFWPRYVKVGSCFSKRSCSVPEGMVCKPSKSVHLTVLRWRCQRRGGQRCGWIPIQYPIISECKCSC"}, "B3": {"name": "Bone Morphogenetic Protein 4 (protein, UniProt P12644 293-408, looked up)", "Bone morphogenetic protein 4": "SPKHHSQRARKKNKNCRRHSLYVDFSDVGWNDWIVAPPGYQAFYCHGDCPFPLADHLNSTNHAIVQTLVNSVNSSIPKACCVPTELSAISMLYLDEYDKVVLKNYQEMVVEGCGCR", "notes": "Bone Morphogenetic Protein 4, human BMP4 (R&D Systems)"}}, "key": {"hESC-derived mesoderm [1]": {"tested_on": "hESC-derived mesoderm", "test": "Cardiomyocyte specification from hESC-derived day 4 mesoderm, cTnT+ cells at day 15 by flow cytometry", "type": "cell-based, human", "details": "for cardiomyocyte development in presence of Wnt and activin/nodal/TGFβ inhibitor: specification step, contracting cTnT/SIRPA cells at day 15; for cardiomyocyte development / specification: added to day 4 mesoderm during specification step, high levels of BMP4 or inhibitors, analysed day 15", "description": "FIG. 1. Cardiomyocyte specification from hESCs. Scheme of the protocol used to differentiate hESCs towards the cardiomyocyte lineage highlighting the three main stages of development: 1) mesoderm induction, 2) cardiovascular specification and 3) maturation. Cells from ActivinA/BMP4-induced day 4 embryoid bodies (EBs) are plated as a monolayer on gelatin coated wells. […] Following specification, the cultures were maintained in VEGF for 9 days and then analyzed for the presence of cTnT+ cardiomyocytes by flow cytometry. FIG. 2. […] (a) Flow cytometric analyses showing the presence of the KDR+ and PDGFRα+ populations at day 4 and day 5 and the cTnT+ expression on day 15 of culture following no treatment (control), treatment with BMP4 (10 ng/ml) or the BMP4 inhibitor Noggin (400 ng/ml). (b) Total cell numbers per well at day 15 in the cultures treated as above. Error bars represent standard deviation from the mean from three experiments. FIG. 3. […] Graphical representation of flow cytometry analyses indicating the percent cTnT^+ cells in day 15 cultures generated from populations treated with the indicated amounts of BMP4 or Noggin. NT=no treatment. Bars represent standard deviation from the mean of the values from three independent experiments (N=3); *P≤0.05, **P≤0.01 when compared to no treatment. FIG. 9. […] Error bars represent standard deviation from the mean of the values from three independent experiments (N=3); *P≤0.05, **P≤0.01 when compared to the ‘no Wnt treatment’ (NT) control in context of the indicated manipulation of the BMP pathway. (b) qRT-PCR-based analyses of WT1 expression on day 15 cultures generated from untreated cells (control) or cells treated with either BMP4 (10 ng/ml) or DM (4 μM) in combination with the indicated amounts of DKK or CHIR. Values are relative to the housekeeping gene TBP. Error bars represent standard deviation from the mean of the values from three independent experiments (N=3); *P≤0.05, **P≤0.01 when compared to the ‘no Wnt treatment’ (NT) control in the context of the indicated manipulation of the BMP pathway. (c) Flow cytometry analyses showing percent cTnT+ cells and qRT-PCR analyses for WT1 expression in day 15 cultures generated from untreated cells (control) or cells treated with either BMP4 (10 ng/ml) or DM (4 μM) in combination with the indicated amounts of XAV939 (XAV). Error bars represent standard deviation from the mean of the values from three independent experiments (N=3); *P≤0.05, **P≤0.01 when compared to no Wnt treatment (see FIGS. 9a and 9b) in the context of the specific BMP treatment. (d) Flow cytometry analyses showing percent cTnT+ cells and qRT-PCR analyses of WT1 expression in day 15 cultures generated from untreated cells (control) or cells treated with either BMP4 (10 ng/ml) or DM (4 μM) in combination with the indicated amounts of IWP2. Error bars represent standard deviation from the mean of the values from three independent experiments (N=3); *P≤0.05, **P≤0.01 when compared to no Wnt treatment (see FIGS. 9a and 9b) in the context of the specific BMP treatment. Media consisting of StemPro-34 (Life Technologies) supplemented with […] penicillin/streptomycin, 2 mM L-glutamine, 1 mM ascorbic acid, and 4 3 10_4 M monothioglycerol (MTG) (Sigma). […] The Activin/Nodal/TGF-b and BMP inhibition experiments were carried out with SB-431542 (Tocris, Ellisville, Mo.) and dorsomorphin (Sigma), respectively. For experiments involving Wnt signaling, CHIR-99021 (Stemgent), XAV-939 (R&D), or IWP2(R&D) were used at the indicated concentrations. Cultures were maintained in a 5% CO2, 5% O2, 90% N2 environment for the first 10-12 days and were then transferred into a 5% CO2 air environment for the remainder of the culture period."}, "hESC-derived mesoderm [2]": {"tested_on": "hESC-derived mesoderm", "test": "qRT-PCR and immunostaining of myocardial and epicardial markers (WT1, TBX18) after treatment of mesoderm", "type": "cell-based, human", "details": "for WT1 expression in BMP4-treated cells: higher concentrations of DKK1 or small molecule antagonists, CHIR", "excerpt": "Values are relative to the housekeeping gene TBP. Error bars represent standard deviation from the mean of the values from three independent experiments (N=3); *P≤0.05, **P≤0.01 when compared to no treatment. FIG. 5. […] Error bars represent standard deviation from the mean of the values from three independent experiments (N=3); *P≤0.05, **P≤0.01 when compared to the ‘no Wnt treatment’ (NT) control in context of the indicated manipulation of the BMP pathway. (b) qRT-PCR-based analyses of WT1 expression on day 15 cultures generated from untreated cells (control) or cells treated with either BMP4 (10 ng/ml) or DM (4 μM) in combination with the indicated amounts of DKK or CHIR. Values are relative to the housekeeping gene TBP. Error bars represent standard deviation from the mean of the values from three independent experiments (N=3); *P≤0.05, **P≤0.01 when compared to the ‘no Wnt treatment’ (NT) control in the context of the indicated manipulation of the BMP pathway. (c) Flow cytometry analyses showing percent cTnT+ cells and qRT-PCR analyses for WT1 expression in day 15 cultures generated from untreated cells (control) or cells treated with either BMP4 (10 ng/ml) or DM (4 μM) in combination with the indicated amounts of XAV939 (XAV). Error bars represent standard deviation from the mean of the values from three independent experiments (N=3); *P≤0.05, **P≤0.01 when compared to no Wnt treatment (see FIGS. 9a and 9b) in the context of the specific BMP treatment. (d) Flow cytometry analyses showing percent cTnT+ cells and qRT-PCR analyses of WT1 expression in day 15 cultures generated from untreated cells (control) or cells treated with either BMP4 (10 ng/ml) or DM (4 μM) in combination with the indicated amounts of IWP2. Error bars represent standard deviation from the mean of the values from three independent experiments (N=3); *P≤0.05, **P≤0.01 when compared to no Wnt treatment (see FIGS. 9a and 9b) in the context of the specific BMP treatment. […] As a first approach to identify these cells, we analyzed them for expression of a panel of myocardial and epicardial genes over a 6-15 day time course. […] In vivo, the epicardial cells form an epithelial layer that surrounds the developing heart^18. In addition to their distinct morphology, epithelial cells in culture are characterized by their ability to form tight junctions that can be monitored by the presence of the zona occludins 1 (ZO1) protein."}, "[3]": {"details": "titration during specification step, FIG. 3"}, "[4]": {"details": "qRT-PCR, 6-15 day time course, cells from treated mesoderm"}}, "note": "Entries after “also recorded” stand apart in the source; their conditions may differ.", "data": [{"molecule": "NC(=O)c1ccc(-c2nc(-c3ccc4c(c3)OCO4)c(-c3ccccn3)[nH]2)cc1", "note": "[SB431542, reference compound]", "values": [{"measurement": "cardiomyocyte development in presence of Wnt and activin/nodal/TGFβ inhibitor", "setting": "hESC-derived mesoderm [1]", "value": "cardiomyocytes routinely develop"}]}, {"molecule": "Oc1nc(-c2ccc(C(F)(F)F)cc2)nc2c1CSCC2", "note": "[XAV939, reference compound]", "values": [{"measurement": "WT1 expression in BMP4-treated cells", "setting": "hESC-derived mesoderm [2]; qRT-PCR day 15", "value": "decreased WT1 expression"}]}, {"molecule": "Cc1ccc2nc(NC(=O)CSc3nc4c(c(=O)n3-c3ccccc3)SCC4)sc2c1", "note": "[IWP2, reference compound]", "values": [{"measurement": "WT1 expression in BMP4-treated cells", "setting": "hESC-derived mesoderm [2]; qRT-PCR day 15", "value": "decreased WT1 expression"}]}, {"molecule": "Cc1c[nH]c(-c2cnc(NCCNc3ccc(C#N)cn3)nc2-c2ccc(Cl)cc2Cl)n1", "note": "[CHIR99021, reference compound]", "values": [{"measurement": "WT1 expression in DM treated cultures", "setting": "hESC-derived mesoderm [2]; qRT-PCR day 15", "value": "no change in WT1 expression"}, {"measurement": "WT1 expression in the endogenous BMP population", "setting": "hESC-derived mesoderm [2]; qRT-PCR day 15", "value": "increased levels"}, {"measurement": "WT1 expression in BMP4-treated cells", "setting": "hESC-derived mesoderm [2]; qRT-PCR day 15", "value": "did not impact WT1 expression"}, {"measurement": "cardiomyocyte development in DM-treated cultures", "setting": "hESC-derived mesoderm [1]; Wnt activation in presence of dorsomorphin", "value": "unaffected"}, {"measurement": "cardiomyocyte development in the endogenous BMP control", "setting": "hESC-derived mesoderm [1]; Wnt activation, no BMP pathway regulators", "value": "inhibited cardiomyocyte development"}]}, {"molecule": "B1", "values": [{"measurement": "cardiomyocyte development in presence of Wnt and activin/nodal/TGFβ inhibitor", "setting": "hESC-derived mesoderm [1]", "value": "cardiomyocytes routinely develop"}]}, {"molecule": "B2", "values": [{"measurement": "expression of panel of myocardial and epicardial genes", "setting": "hESC-derived mesoderm [2]; qRT-PCR, 6-15 day time course", "value": "did not express significant levels of any of these genes"}, {"measurement": "cardiomyocyte development / specification", "setting": "hESC-derived mesoderm [1]", "value": "completely blocked cardiomyocyte development; also recorded: inhibited cardiomyocyte specification"}, {"measurement": "levels of KDR (mesoderm development)", "setting": "hESC-derived mesoderm [1]; flow cytometry after treatment of day 4 mesoderm", "value": "decrease the levels of KDR to some extent"}, {"measurement": "low levels at which cardiomyocyte development is achieved", "setting": "hESC-derived mesoderm [1]; [3]", "value": "12.5 to 200", "unit": "ng/mL"}]}, {"molecule": "B3", "values": [{"measurement": "WT1 (nuclear) by immunostaining", "setting": "hESC-derived mesoderm [2]; day 15 of culture", "value": "detected only in cells induced with BMP4"}, {"measurement": "TBX18 expression", "setting": "hESC-derived mesoderm [2]; [4]", "value": "predominantly"}, {"measurement": "WT1 expression", "setting": "hESC-derived mesoderm [2]; [4]", "value": "exclusively"}, {"measurement": "BNC1 and ANXA8 expression", "setting": "hESC-derived mesoderm [2]; qRT-PCR, cells from treated mesoderm", "value": "highly expressed"}, {"measurement": "cardiomyocyte development / specification", "setting": "hESC-derived mesoderm [1]", "value": "completely blocked cardiomyocyte development"}, {"measurement": "concentrations that inhibited cardiomyocyte specification", "setting": "hESC-derived mesoderm [1]; [3]", "value": "≥ 0.63", "unit": "ng/mL"}, {"measurement": "low levels at which cardiomyocyte development is achieved", "setting": "hESC-derived mesoderm [1]; [3]", "value": 0.31, "unit": "ng/mL"}]}]}
